This passage reports Km results from publication PMC8624084, “Persulfidation of Nitrate Reductase 2 Is Involved in L-Cysteine Desulfhydrase-Regulated Rice Drought Tolerance” (International Journal of Molecular Sciences, 2021).

What all share (format): biochemical, Oryza sativa
Substrate in data set [1]: N[C@@H](CS)C(=O)O
The experiment in a line: purified protein. Conditions: L-cysteine desulfhydrase (CDes) reaction, method section: 100 mM Tris/HCl pH 8.5, 2.5 mM DTT, 37 °C.

Substrate in data set [2]: CC(=O)OC[C@H](N)C(=O)O
Kind of data set: OAS-TL activity assay, Lineweaver-Burk. Conditions: OAS-TL (cysteine synthase) side reaction; co-substrate Na2S.

Substrate in data set [3]: S
Kind of data set: OAS-TL activity assay, Lineweaver-Burk. Conditions: OAS-TL (cysteine synthase) side reaction; co-substrate OAS.

B1: OsLCD1 (Oryza sativa Japonica Group) (protein)
chain: MASIPPDDDAAAAAAAGAAENGYGNGKGNGNGPAPRPPPAKRPRSVISAAQIRAEFEHHEAGVARVNNGSFGCCPSSLLDAQARWQRLFIAQPDDFYFHALQPGLRRSRAAVAGLVNAGDVAEVSLVDNATTAAAIVLQHAAWSFAEGRFSRGDAVLMLHYAYGAVKKSIHAYVARAGATVVEVPLPFPVASADAIIAEFRAALDVAKAGGRKVRLAVIDHITSMPSVVIPVKELVAICREEGVDKVFIDAAHSIGQVPVDVRDIGADFYTSNLHKWFFCPPAVAFLHTRKDDPIASQLHHPVVSHEYGNGLPMESGWIGTRDYSAQLVVPESIDFVNRFEGGIEGIRSRNHEKVIEMGKMLAEAWGTFLGTPPELCGSMVMVGLPGCLGVESDDDVMRMRTMLRKDFMVEVPIYYNSRRVEAQEMAKDKNGDAVTGYVRISHQVYNVTEDYEKLRDAVNKLVADGFTSSKLRPSQKQETMA
notes: full length, 482 residues, 55 kDa, N-terminal 6xHis tag (pET-28a(+)), E. coli Rosetta (DE3), Ni-NTA purified
In general, Km refers to the substrate concentration at which the rate is half of its maximum. On to B1, for which the Km in data set [1] came out at 0.15 ± 0.02 mM; in data set [2] it was 3.76 ± 0.41 mM; in data set [3], 8.13 ± 0.72 mM.
